Test results as given in paper PMC10924156, “Design, Preclinical Evaluation, and Clinical Translation of ^68Ga-FAPI-LM3, a Heterobivalent Molecule for PET Imaging of Nasopharyngeal Carcinoma” (Journal of Nuclear Medicine, 2024).
Where two headings read alike, the source gives them in different places. Starred links: 1 amine or outer side, 2 acyl side, 3 side chain; linkers in the order of their positions; H or OH if unused. Positions of bridges follow the written chain, without caps; N, C: chain ends. Non-standard residues stand in square brackets, D forms with d. Residues, ends and D or L forms follow the SMILES beside them. *: point of attachment. X1 = CN(CCCN1CCN(*)CC1)c1ccc2nccc(C(=O)NCC(=O)N3CC(F)(F)C[C@H]3C#N)c2c1; DOTA = O=C(O)CN1CCN(CC(=O)O)CCN(CC(=O)*)CCN(CC(=O)O)CC1; dPhe(4-NHCONH2) = NC(=O)Nc1ccc(C[C@@H](N)C(=O)O)cc1; Phe(4-Cl) = N[C@@H](Cc1ccc(Cl)cc1)C(=O)O; Suc = O=C(CCC(=O)[*:2])[*:1]; AEEEA = NCCOCCOCCOCC(=O)O

Key:
SSTR2 [1] = target: T1, SSTR2 (Homo sapiens, UniProt P30874); test: SSTR2 receptor binding assay on HT-1080-SSTR2 cells; settings: read-out: half-maximal inhibitory concentration, SSTR2 binding
T1 construct: expressed in transfected cells
T1 sequence (P30874 whole entry): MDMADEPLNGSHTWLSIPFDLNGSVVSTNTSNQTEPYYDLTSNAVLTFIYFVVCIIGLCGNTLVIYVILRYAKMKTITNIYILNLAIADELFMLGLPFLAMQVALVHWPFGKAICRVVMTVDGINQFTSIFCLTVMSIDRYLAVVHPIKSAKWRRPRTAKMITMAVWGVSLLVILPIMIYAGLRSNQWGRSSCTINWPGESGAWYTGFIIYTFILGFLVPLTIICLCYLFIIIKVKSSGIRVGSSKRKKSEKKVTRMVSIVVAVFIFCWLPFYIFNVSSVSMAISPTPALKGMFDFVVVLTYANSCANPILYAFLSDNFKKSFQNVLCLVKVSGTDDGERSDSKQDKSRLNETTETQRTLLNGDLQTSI
Protocol: (§1) Information on cell resources, transfection, and culture is provided in the supplemental materials. For in vitro studies, the cells were seeded in 24-well plates and cultured in a routine medium until they reached approximately 80% confluence. During the experiment, the medium was replaced with a fetal bovine serum–free medium. […] After a 60-min incubation period, the free tracer was removed using phosphate-buffered saline before measurement. The cells were lysed with 0.5 mL of 1 M NaOH, and radioactivity was subsequently gauged using a γ-counter (Wizard 2480; PerkinElmer Inc.).

human FAP = target: T2, human FAP (Homo sapiens, UniProt Q12884); test: FAP radioligand binding assay on HT-1080-FAP cells; settings: read-out: half-maximal inhibitory concentration, FAP binding
T2 construct: expressed in transfected cells
T2 sequence (Q12884 1-760): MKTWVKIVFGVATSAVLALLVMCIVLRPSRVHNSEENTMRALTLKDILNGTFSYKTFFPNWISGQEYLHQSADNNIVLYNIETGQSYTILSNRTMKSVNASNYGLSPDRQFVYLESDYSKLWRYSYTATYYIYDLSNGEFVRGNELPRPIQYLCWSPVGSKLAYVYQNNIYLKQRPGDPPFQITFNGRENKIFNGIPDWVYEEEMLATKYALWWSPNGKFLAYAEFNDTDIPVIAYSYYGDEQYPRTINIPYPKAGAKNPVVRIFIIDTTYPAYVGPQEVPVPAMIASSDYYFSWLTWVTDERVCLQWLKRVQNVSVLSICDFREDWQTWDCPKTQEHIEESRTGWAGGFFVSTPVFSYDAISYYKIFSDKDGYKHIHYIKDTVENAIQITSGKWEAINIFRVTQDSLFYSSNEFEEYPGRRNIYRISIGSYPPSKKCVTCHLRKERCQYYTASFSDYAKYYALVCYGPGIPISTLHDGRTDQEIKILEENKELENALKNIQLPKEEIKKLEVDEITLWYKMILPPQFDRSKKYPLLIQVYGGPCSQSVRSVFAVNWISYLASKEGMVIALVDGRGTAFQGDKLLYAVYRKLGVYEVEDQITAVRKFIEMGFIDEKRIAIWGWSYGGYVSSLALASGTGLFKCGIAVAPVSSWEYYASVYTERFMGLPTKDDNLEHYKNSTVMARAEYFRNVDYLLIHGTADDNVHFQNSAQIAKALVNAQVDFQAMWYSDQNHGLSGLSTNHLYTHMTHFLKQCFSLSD
Protocol: as §1

SSTR2 [2] = settings: cited from earlier work
From the text: Within the domain of nuclear medicine, several targets, such as somatostatin receptor 2 (SSTR2), prostate-specific membrane antigen, and FAP, have emerged as prominent subjects of research ([7],[8]). Epstein–Barr virus latent membrane protein 1 can upregulate SSTR2 expression via the NF-κB pathway ([9]). Both FAP and SSTR2 are important markers in the biology of NPC, as evidenced by the plethora of such PET radiopharmaceuticals, including ^68Ga-FAPI for imaging cancer-associated fibroblasts and ^68Ga-DOTATATE for imaging SSTR2 ([10],[11]).

in vitro = in vitro ADME, bovine; settings: serum
Protocol: Information regarding the reagents, chemicals, high-performance liquid chromatography, liquid chromatography–mass spectrometry, and flow diagram of the synthesis of FAPI-LM3 are provided in the supplemental materials (available at http://jnm.snmjournals.org ([16])). The radiolabeling of FAPI-46, DOTA-LM3, and FAPI-LM3 precursors with ^68Ga was performed following similar procedures. In brief, 25 nmol of the precursor in 1 mL of sodium acetate buffer (0.25 M, pH 8.2–8.3) was allowed to react with 4 mL of ^68Ga solution (1.3 GBq in 0.6 M HCl) at 100°C for 15 min. For clinical imaging, the final product was passed through a 0.22-μm Millipore filter for sterilization in each ^68Ga-FAPI-LM3 preparation process. The stability of ^68Ga-FAPI-LM3 was determined by incubating the product in phosphate-buffered saline and fetal bovine serum at 37°C and analyzing it via radio–high-performance liquid chromatography after 1 and 2 h of incubation.

[3] = system: HT-1080-FAP, HT-1080-SSTR2, HT-1080-FAP–plus–HT-1080-SSTR2, C666-1, U87MG cells; test: Cellular uptake test and blocking experiments; type: cell-based, human; settings: 60 min, with 10 nmol unlabeled FAPI-46, DOTA-LM3 or both; all P < 0.05
Protocol: as §1

[4] = system: HT-1080-FAP–plus–HT-1080-SSTR2 xenografts; settings: mouse
Protocol: (§2) Tumor-bearing mice (3/group) were intravenously injected with approximately 7.4 MBq of ^68Ga-FAPI-LM3, ^68Ga-FAPI-46, or ^68Ga-DOTA-LM3. Subsequent static PET scans were obtained at intervals of 0.5, 1, 2, and 4 h after injection using an Inveon small-animal PET scanner (Siemens). In the blocking experiment, approximately 60 nmol of the unlabeled precursor (FAPI-46, DOTA-LM3, or FAPI-46 plus DOTA-LM3) were simultaneously injected with ^68Ga-FAPI-LM3. The PET images were reconstructed iteratively using 3-dimensional OpMAP 256 (PET reconstruction protocol [.pPetRcn]; Siemens Healthineers AG) and converted to percentage injected dose per gram of tissue (%ID/g) by delineating the regions of interest. For the biodistribution studies, approximately 1.48 MBq of ^68Ga-FAPI-LM3, ^68Ga-FAPI-46, ^68Ga-DOTA-LM3, or ^68Ga-FAPI-LM3 with unlabeled precursor were injected into tumor-bearing mice (3/group), and different groups of mice were euthanized at the scheduled time points after injection.

[5] = human, in vivo
[6] = system: nasopharyngeal carcinoma lesions; settings: human, in vivo
in vivo [7] = settings: BALB/c nude, mouse, iv, 7.4 MBq, total radioactivity, tumor uptake (PET)
Protocol: as §2

in vivo [8] = settings: BALB/c nude, mouse, 1.48 MBq, total radioactivity
Protocol: as §2

clinical = settings: human, in vivo, total radioactivity; for SUV: Median SUVmax; for SUV at 1 h: SUVmax
[9] = system: HT-1080-FAP–plus–HT-1080-SSTR2 tumor xenograft; test: Small-animal PET imaging; settings: 1 h after injection
Protocol: as §2

C[C@@H](O)[C@@H]1NC(=O)[C@H](CCCCN)NC(=O)[C@@H](Cc2ccc(NC(N)=O)cc2)NC(=O)[C@H](Cc2ccc(O)cc2)NC(=O)[C@H](NC(=O)[C@H](Cc2ccc(Cl)cc2)NC(=O)CN2CCN(CC(=O)O)CCN(CC(=O)O)CCN(CC(=O)O)CC2)CSSC[C@@H](C(=O)N[C@H](Cc2ccc(O)cc2)C(N)=O)NC1=O [DOTA-LM3, reference compound] ({DOTA}-[Phe(4-Cl)][dC]Y[dPhe(4-NHCONH2)]KTC[dY]-NH2; disulfide 2-7)
IC50 (SSTR2 [1]): 1.3 nM

CN(CCCN1CCN(C(=O)CN2CCN(CC(=O)O)CCN(CC(=O)O)CCN(CC(=O)O)CC2)CC1)c1ccc2nccc(C(=O)NCC(=O)N3CC(F)(F)C[C@H]3C#N)c2c1 [FAPI-46, reference compound]
IC50 (human FAP; HT-1080-FAP cells, radioligand 68Ga-FAPI-46, 60 min incubation, 8.16 × 10^−5 to 10^−13 M, n = 3): 4.39 nM

C[C@@H](O)[C@@H]1NC(=O)[C@H](CCCCN)NC(=O)[C@@H](Cc2ccc(NC(N)=O)cc2)NC(=O)[C@H](Cc2ccc(O)cc2)NC(=O)[C@H](NC(=O)[C@H](Cc2ccc(Cl)cc2)NC(=O)[C@H](CCCCNC(=O)CN2CCN(CC(=O)O)CCN(CC(=O)O)CCN(CC(=O)O)CC2)NC(=O)CCC(=O)NCCOCCOCCOCC(=O)N2CCN(CCCN(C)c3ccc4nccc(C(=O)NCC(=O)N5CC(F)(F)C[C@H]5C#N)c4c3)CC2)CSSC[C@@H](C(=O)N[C@H](Cc2ccc(O)cc2)C(N)=O)NC1=O [FAPI-LM3] ({X1-AEEEA-Suc}-K(DOTA)[Phe(4-Cl)][dC]Y[dPhe(4-NHCONH2)]KTC[dY]-NH2; disulfide 3-8)
IC50 (human FAP): 11.7 nM | IC50 (SSTR2 [1]): 13.2 nM

p-Cl-Phe-cyclo(D-Cys-Tyr-D-4-amino-Phe(carbamoyl)-Lys-Thr-Cys)D-Tyr-NH2 (disulfide) [LM3, SSTR2 antagonist peptide]
binding affinity to SSTR2 (SSTR2 [2]): high | internalization rate (SSTR2 [2]): low

C[C@@H](O)[C@@H]1NC(=O)[C@H](CCCCN)NC(=O)[C@@H](Cc2ccc(NC(N)=O)cc2)NC(=O)[C@H](Cc2ccc(O)cc2)NC(=O)[C@H](NC(=O)[C@H](Cc2ccc(Cl)cc2)NC(=O)[C@H](CCCCNC(=O)CN2CCN(CC(=O)O)CCN(CC(=O)O)CCN(CC(=O)O)CC2)NC(=O)CCC(=O)NCCOCCOCCOCC(=O)N2CCN(CCCN(C)c3ccc4nccc(C(=O)NCC(=O)N5CC(F)(F)C[C@H]5C#N)c4c3)CC2)CSSC[C@@H](C(=O)N[C@H](Cc2ccc(O)cc2)C(N)=O)NC1=O [^68Ga-FAPI-LM3, metal not drawn] ({X1-AEEEA-Suc}-K(DOTA)[Phe(4-Cl)][dC]Y[dPhe(4-NHCONH2)]KTC[dY]-NH2; disulfide 3-8)
remaining at 2 h (in vitro): > 99% | binding to FAP or SSTR2 with corresponding unlabeled agent [3]: significantly blocked | uptake in blood (ex vivo biodistribution) [4]: high | Effective dose equivalent, Mean [5]: 1.20E–03 mSv/MBq | dosimetry, Adrenal glands, Mean [5]: 5.98E–05 mSv/MBq | dosimetry, Brain, Mean [5]: 1.63E–06 mSv/MBq | dosimetry, Breasts, Mean [5]: 3.47E–05 mSv/MBq | dosimetry, Kidneys, Mean [5]: 1.08E–04 mSv/MBq | dosimetry, LLI wall (lower large intestine), Mean [5]: 4.34E–04 mSv/MBq | dosimetry, Liver, Mean [5]: 1.28E–03 mSv/MBq | dosimetry, Lungs, Mean [5]: 7.68E–04 mSv/MBq | dosimetry, Muscle, Mean [5]: 1.57E–05 mSv/MBq | dosimetry, Osteogenic cells, Mean [5]: 4.22E–05 mSv/MBq | dosimetry, Ovaries, Mean [5]: 3.66E–04 mSv/MBq | dosimetry, Pancreas, Mean [5]: 1.23E–04 mSv/MBq | dosimetry, Red marrow, Mean [5]: 7.62E–04 mSv/MBq | dosimetry, Skin, Mean [5]: 6.29E–06 mSv/MBq | dosimetry, Small intestine, Mean [5]: 2.71E–05 mSv/MBq | dosimetry, Spleen, Mean [5]: 1.23E–04 mSv/MBq | dosimetry, Stomach wall, Mean [5]: 4.04E–04 mSv/MBq | dosimetry, Thyroid, Mean [5]: 3.68E–06 mSv/MBq | dosimetry, ULI wall (upper large intestine), Mean [5]: 1.53E–05 mSv/MBq | dosimetry, Urinary bladder wall, Mean [5]: 2.14E–03 mSv/MBq | dosimetry, Uterus, Mean [5]: 2.19E–04 mSv/MBq | physiologic uptake in normal organs [6]: intense physiologic uptake | tissue uptake at 0.5 h (in vivo [7]): 14 ± 0.47 %ID/g | tissue uptake at 1 h (in vivo [7]): 14.4 ± 0.67 %ID/g | tissue uptake at 2 h (in vivo [7]): 14.4 ± 0.68 %ID/g | tissue uptake at 4 h (in vivo [7]): 13.8 ± 0.68 %ID/g | tissue uptake at 1 h (in vivo [8]): 14.8 ± 0.76 %ID/g | tissue uptake at 4 h (in vivo [8]): 17.7 ± 2.46 %ID/g | SUV (clinical; Bone mets): 11.2 SUV | SUV (clinical; Distant LN mets): 16.9 SUV | SUV (clinical; Liver mets): 16.5 SUV | SUV (clinical; Peritoneal mets): 13.1 SUV | SUV (clinical; Pleural mets): 17.3 SUV | SUV (clinical; Primary): 13.8 SUV | SUV (clinical; Regional LN mets): 11.4 SUV | SUV (clinical; Total distant metastases): 14.6 SUV | SUV at 1 h (clinical; bone metastases): 10.4 SUV | SUV at 1 h (clinical; distant lymph node metastases): 14.5 SUV | SUV at 1 h (clinical; liver metastases): 14.3 SUV | SUV at 1 h (clinical; regional lymph node metastases): 10.1 SUV | blockade of tumor uptake ([9]; unlabeled DOTA-LM3): 62% | blockade of tumor uptake ([9]; unlabeled FAPI-46): 63% | blockade of tumor uptake ([9]; unlabeled FAPI-46 plus DOTA-LM3): 93%

OC[C@H]1OC(O)[C@H]([18F])[C@@H](O)[C@@H]1O (stereo partly shown) [^18F-FDG]
Median SUVmax, Distant LN mets [6]: 8.2 (2.0–9.0) | Median SUVmax, Peritoneal mets [6]: 3.4 (1.5–8.6) | Median SUVmax, Pleural mets [6]: 7.2 (3.7–12.0)
